The text below walks through data of patent publication US20240366756A1, “COMBINATIONS AND USES THEREOF” (Incyte Corporation, priority 2011, published 2024).

Marks after values point to notes of the source that are not given here.

In this experiment the test system is RAMOS human Burkitt's lymphoma cells. Nature of the experiment: Human Non-Hodgkin RAMOS tumor in SCID mice, survival model. The class given is in vivo. The following applies: for Median Survival (Days Post-Inoculation): 3 mg/kg i.v., treatment related deaths excluded; for Survival, pairwise comparison (Holm-Sidak) vs. Group 2: Group 2 = Bendamustine (13 mg/kg); for Survival, pairwise comparison (Holm-Sidak) vs. Group 3: Group 3 = Bendamustine (16 mg/kg); for Survival, pairwise comparison (Holm-Sidak) vs. Group 5: Group 5 = MOR00208/Bendamustine (3/13 mg/kg); for Survival, pairwise comparison (Holm-Sidak) vs. Group 6: Group 6 = MOR00208/Bendamustine (3/16 mg/kg); for Survival, pairwise comparison (Holm-Sidak) vs. Group 1: Group 1 = MOR00208 (3 mg/kg). On the procedure: Cyclophosphamide (Baxter, Lot. No. 1A548C); Vehicle Control: 0.9% sodium chloride, 25 mg/ml mannitol, pH 6.5-6.8 (adjusted with 0.01 M NaOH); SCID Mice (University of Adelaide, Waite Campus, Urrbaraie, SA, Australia, Strain C.B.-17-Igh-1^b-Prkdc^scid); RAMOS human Burkitt's lymphoma cells (ATCC number CRL-1596); Ref_mAb_33_IgG_Xen (10 mg/mL in PBS, referred to as Ref_mAb_33); Bendamustine (Mundipharma, Lot No. 83889).
SCID mice were pre-treated with Cyclophosphamide (75 mg/kg, i.p., twice daily) for two days prior to RAMOS cell inoculation (Day −2 and −1). On the day of inoculation (Day 0), the mice were separated into seven groups of ten mice each, and inoculated with 1×10^6 RAMOS cells each intravenously into the tail vein. The planned dosing regimen for each group is shown in Table 5 and commenced on Day 3. The study duration was 60 days.
From the raw data shown in Table 6, both the median survival in days and median increase in lifespan were calculated. All treatment related deaths were excluded in the calculations.
Median % Increased Lifespan (ILS) is calculated as follows: […]
The classification of the MOR000208/Bendamustine combination therapy (combo) effect was evaluated by comparing the ILS of the combination with the added ILS of the respective monotherapies:
Synergy/Potentiation*: ILSCombo>ILSMOR00208 3 mg/kg+ILSBendamustine. Synergistic effects are classified as potentiation if at least one of the monotherapies has no effect. Additivity: ILSCombo=ILSMOR00208 3 mg/kg+ILSBendamustine. Antagonism: ILSCombo<ILSMOR00208 3 mg/kg+ILSBendamustine.
In addition to an analysis of the data for purposes of identifying synergy, the following statistical analysis was also completed. Statistical analyses were carried out using the median values. Any animal that died unexpectedly or was culled prior to Day 17 of the study in the Test Article treatment groups was excluded from survival analysis calculation. The death/culling of these animals was attributed to compound toxicity rather than disease progression as they occurred well in advance of the first deaths in the Vehicle Control animals. A survival curve was created using the product limit of Kaplan and Meier, and survival curves compared using the log-rank (Mantel-Cox) test. Where significant differences were found, All Pairwise Multiple Comparison (Holm-Sidak Test) was performed. Comparison was done between all groups. In addition the comparison of the following groups were summarised in separate figures for each test article: Vehicle Control/Ref_mAb (group 10) against Bendamustine groups (Groups 2, 3 and 4) and Vehicle Control/Ref_mAb (group 10) against Combination groups (Groups 5 and 6) or respective MOR00208 monotherapy group (group 1). A p value of less than 0.05 was considered significant.

The mark [1] stands for this setting: Table 8, listed as Bendamustine = 13 mg/kg.
The mark [2] stands for this setting: Table 9, listed as combination = 3/13 mg/kg.
Where [3] appears, read: Table 10, listed as combination = 3/16 mg/kg.
[4] abbreviates: untitled repeat of Table 8, listed as Bendamustine = 13 mg/kg.

For “MOR00208: anti-CD19 antibody; variable domains shown in FIG. 3, heavy and light chain Fc regions in FIG. 4”, the “Median Survival (Days Post-Inoculation)” value is 32^a Days Post-Inoculation. In addition, the “Median % Increase in Lifespan (ILS)” value (3 mg/kg, vs. vehicle control/Ref_mAb_33) is 25.5%. Further, the “Survival, pairwise comparison (Holm-Sidak) vs. Group 2” value (“Survival … (Holm-Sidak) vs. Group 2” below) (Table 8) was “***Yes (***Yes: There is a statistically significant difference (p < 0.001).)”. Moreover, the “Survival, pairwise comparison (Holm-Sidak) vs. Group 3” value (“Survival … (Holm-Sidak) vs. Group 3” for short) under setting [1] is “***Yes (***Yes: There is a statistically significant difference (p < 0.001).)”. The “Survival … (Holm-Sidak) vs. Group 2” value under setting [2] was “***Yes (***Yes: There is a statistically significant difference (p < 0.001).)”. Besides, the “Survival, pairwise comparison (Holm-Sidak) vs. Group 5” value (Table 9) is reported as “*Yes (*Yes: There is a statistically significant difference (p < 0.05).)”. Further, the “Survival … (Holm-Sidak) vs. Group 3” value under setting [3] is listed as “***Yes (***Yes: There is a statistically significant difference (p < 0.001).)”. For the same molecule, for the setting “Table 10”, the “Survival, pairwise comparison (Holm-Sidak) vs. Group 6” value is “***Yes (***Yes: There is a statistically significant difference (p < 0.001).)”. For the same molecule, where the note is “untitled repeat of Table 8”, the “Survival … (Holm-Sidak) vs. Group 2” value is given as “***Yes (***Yes: There is a statistically significant difference (p < 0.001).)”. Besides, the “Survival … (Holm-Sidak) vs. Group 3” value under setting [4] was “***Yes (***Yes: There is a statistically significant difference (p < 0.001).)”.

B1: RefmAb33: antibody specific for RSV, used as isotype control, shares the same Fc region as MOR00208 (SEQ ID NO: 8, 9) (antibody)
heavy: QVTLRESGPALVKPTQTLTLTCTFSGFSLSTAGMSVGWIRQPPGKALEWLADIWWDDKKHYNPSLKDRLTISKDTSKNQVVLKVTNMDPADTATYYCARDMIFNFYFDVWGQGTTVTVSSASTKGPSVFPLAPSSKSTSGGTAALGCLVKDYFPEPVTVSWNSGALTSGVHTFPAVLQSSGLYSLSSVVTVPSSSLGTQTYICNVNHKPSNTKVDKKVEPKSCDKTHTCPPCPAPELLGGPDVFLFPPKPKDTLMISRTPEVTCVVVDVSHEDPEVQFNWYVDGVEVHNAKTKPREEQFNSTFRVVSVLTVVHQDWLNGKEYKCKVSNKALPAPEEKTISKTKGQPREPQVYTLPPSREEMTKNQVSLTCLVKGFYPSDIAVEWESNGQPENNYKTTPPMLDSDGSFFLYSKLTVDKSRWQQGNVFSCSVMHEALHNHYTQKSLSLSPGK
light: DIQMTQSPSTLSASVGDRVTITCSASSRVGYMHWYQQKPGKAPKLLIYDTSKLASGVPSRFSGSGSGTEFTLTISSLQPDDFATYYCFQGSGYPFTFGGGTKVEIKRTVAAPSVFIFPPSDEQLKSGTASVVCLLNNFYPREAKVQWKVDNALQSGNSQESVTEQDSKDSTYSLSSTLTLSKADYEKHKVYACEVTHQGLSSPVTKSFNRGEC
modifications: Heavy chain RefMab33; Light chain RefMab33
Regarding B1, the “Median Survival (Days Post-Inoculation)” value stood at 25.5 Days Post-Inoculation. Besides, under “Table 8”, the “Survival, pairwise comparison (Holm-Sidak) vs. Group 1” value (from here on “Survival … (Holm-Sidak) vs. Group 1”) is “***Yes (***Yes: There is a statistically significant difference (p < 0.001).)” and the “Survival … (Holm-Sidak) vs. Group 2” value is “*Yes (*Yes: There is a statistically significant difference (p < 0.05).)”. Moreover, the “Survival … (Holm-Sidak) vs. Group 3” value under setting [1] was “No (No: There is no statistically significant difference (p ≥ 0.05).)”. Further, where the note is “Table 9”, the “Survival … (Holm-Sidak) vs. Group 1” value is recorded as “***Yes (***Yes: There is a statistically significant difference (p < 0.001).)” and the “Survival, pairwise comparison (Holm-Sidak) vs. Group 5” value was “***Yes (***Yes: There is a statistically significant difference (p < 0.001).)”. Under setting [2], the “Survival … (Holm-Sidak) vs. Group 2” value is listed as “*Yes (*Yes: There is a statistically significant difference (p < 0.05).)”. For the same molecule, where the note is “Table 10”, the “Survival … (Holm-Sidak) vs. Group 1” value is on record as “***Yes (***Yes: There is a statistically significant difference (p < 0.001).)” and the “Survival, pairwise comparison (Holm-Sidak) vs. Group 6” value is “***Yes (***Yes: There is a statistically significant difference (p < 0.001).)”. Also, the “Survival … (Holm-Sidak) vs. Group 3” value under setting [3] was “No (No: There is no statistically significant difference (p ≥ 0.05).)”. In addition, where the note is “untitled repeat of Table 8”, the “Survival … (Holm-Sidak) vs. Group 1” value is “***Yes (***Yes: There is a statistically significant difference (p < 0.001).)” and the “Survival … (Holm-Sidak) vs. Group 2” value is listed as “*Yes (*Yes: There is a statistically significant difference (p < 0.05).)”. In addition, the “Survival … (Holm-Sidak) vs. Group 3” value under setting [4] is given as “No (No: There is no statistically significant difference (p ≥ 0.05).)”.
